According to patent publication US20230365705A1 (DYNAMICURE BIOTECHNOLOGY, published 2023):

T1: Human CD93 on cells (human CD93 expressing CHO cells; HUVEC, U937 and KG1a cells) (human, UniProt Q9NPY3 22-652)
T1 construct: whole, on cells; also called hCD93 expressing CHO cells; hCD93 CHO cells
T1 sequence (looked up): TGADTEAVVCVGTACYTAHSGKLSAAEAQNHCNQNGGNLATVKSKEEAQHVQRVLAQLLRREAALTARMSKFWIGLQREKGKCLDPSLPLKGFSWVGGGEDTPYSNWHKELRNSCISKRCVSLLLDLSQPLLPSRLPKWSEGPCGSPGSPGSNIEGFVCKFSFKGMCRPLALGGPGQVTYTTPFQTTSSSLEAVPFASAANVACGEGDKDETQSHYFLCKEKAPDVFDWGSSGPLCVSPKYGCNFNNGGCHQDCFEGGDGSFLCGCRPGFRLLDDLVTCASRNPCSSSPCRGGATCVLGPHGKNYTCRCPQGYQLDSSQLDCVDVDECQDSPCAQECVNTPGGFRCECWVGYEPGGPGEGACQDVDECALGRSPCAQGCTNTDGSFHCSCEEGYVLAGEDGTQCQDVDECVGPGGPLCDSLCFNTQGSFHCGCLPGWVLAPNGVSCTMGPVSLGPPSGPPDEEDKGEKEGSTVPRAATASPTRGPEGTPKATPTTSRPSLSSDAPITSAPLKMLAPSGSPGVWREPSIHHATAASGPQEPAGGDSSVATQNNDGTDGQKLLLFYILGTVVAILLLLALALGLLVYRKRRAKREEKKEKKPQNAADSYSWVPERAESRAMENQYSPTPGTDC

T2: Human CD93 recombinant protein (Sino Biological Inc, Catalog #12589-H08H) (human, UniProt Q9NPY3 22-580)
T2 construct: Biotinylated (EZ-LINK NHS-PEG4 biotin) in the BLI assays; also called hCD93; His-tagged human CD93
T2 sequence (looked up): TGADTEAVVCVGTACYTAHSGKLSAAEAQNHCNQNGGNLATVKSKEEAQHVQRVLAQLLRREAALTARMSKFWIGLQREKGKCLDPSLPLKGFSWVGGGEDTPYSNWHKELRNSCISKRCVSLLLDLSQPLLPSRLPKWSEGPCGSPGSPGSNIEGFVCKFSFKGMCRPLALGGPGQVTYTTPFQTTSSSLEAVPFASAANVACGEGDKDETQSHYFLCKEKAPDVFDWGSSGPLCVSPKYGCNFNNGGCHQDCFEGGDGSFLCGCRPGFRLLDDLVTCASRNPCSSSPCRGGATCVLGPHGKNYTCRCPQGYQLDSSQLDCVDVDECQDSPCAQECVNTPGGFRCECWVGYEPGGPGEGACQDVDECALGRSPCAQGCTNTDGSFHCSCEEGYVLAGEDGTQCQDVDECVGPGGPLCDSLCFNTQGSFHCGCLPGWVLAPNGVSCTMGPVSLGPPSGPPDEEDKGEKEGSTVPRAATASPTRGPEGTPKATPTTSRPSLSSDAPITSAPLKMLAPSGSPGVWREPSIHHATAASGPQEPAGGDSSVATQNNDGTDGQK

B1: h7F3 (humanized 7F3, VH3+VL3) (antibody, human IgG1, V domains shown)
VH: QVQLVQSGAEVKKPGASVKVSCKASGYTFTDYEMHWVRQAPGQGLEWMGGIDPETGDTAYNQNFKGRVTMTTDTSTSTAYMELRSLTSDDTAVYYCTNYGNLYYYAMDYWGQGTSVTVSS
VL: EIVLTQSPSSLSASVGDRVTITCRASSSVSSSYLHWYQQKPGKAPKLLIYSTSNLAFGVPSRFSGSGSGTSYTFTISSLQPEDIATYYCQQYSGYPLTFGSGTKLEIK
notes: also called humanized 7F3-hIgG1
B2: 16E4 (hybridoma) (antibody, IgG2a, V domains shown)
VH: QVQLQQPGAELVKPGASVKLSCKASGYTFTSYWMHWVKQRPGQGLEWIGEIDPSASYTYYNQKFKGKATLTVDKSSSTAYMQLSSLTSEDSAVYYCARSVYYGNKYFDVWGAGTTVTVSS
VL: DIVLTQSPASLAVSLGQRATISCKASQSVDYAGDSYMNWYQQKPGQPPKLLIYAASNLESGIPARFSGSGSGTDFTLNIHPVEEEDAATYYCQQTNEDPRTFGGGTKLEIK
notes: also called 16E4 mAb; 16E4 mIgG2a

Key:
[1] = biological target: T1, Human CD93 on cells (human CD93 …); test: summary table, column FACS (HUVEC cells); 4 weeks at 40 C
Method: (§1) HUVEC cells were detached by incubation with TrypLE reagents (Thermo Fisher), which preserves the integrity of CD93 on the cell surface. Then the cells were incubated with serial diluted anti-CD93 antibodies for 30 minutes at 4° C. After washing by FACS buffer, the cells were incubated with Alexa Fluor 647 conjugated anti-human IgG (Jackson ImmunoResearch) for 30 minutes in 4° C. After washing by FACS buffer twice, the samples were acquired in NovoCyte Flow Cytometer and analyzed by NovoExpress software.

[2] = biological target: T1, Human CD93 on cells (human CD93 …); test: flow cytometry blocking assay, CHO-hCD93 cells; blocked ligand hMMRN2 495-674 at 0.1 ug/ml; antibody stored 4 weeks at 40 C
Method: Then the cells were incubated with hMMRN2₄₉₅₋₆₇₄ at 0.1 μg/ml. […] After washing with FACS buffer twice, the samples were analyzed, and data acquired in NovoCyte Flow. Recombinant his tagged hMMRN2₄₉₅₋₆₇₄ was produced internally in E. Coli following routine procedure.

[3] = biological target: T2, Human CD93 recombinant protein (Sino …); test: BLI (Octet QKe), biotinylated human CD93 on streptavidin biosensors
Method: The binding affinity of anti-CD93 antibodies was determined with bio-layer interferometry using Octet QKe (Fortebio). […] Human CD93 recombinant protein (Sino Biological Inc, Catalog #12589-H08H) was biotinylated using EZ-LINK NHS-PEG4 biotin (Thermo Fisher Scientific). Streptavidin biosensors (Fortebio) were used to load biotinylated CD93 protein (300 seconds in 5 μg/ml). Baseline was stabilized for 60 seconds in 1×kinetics buffer (Fortebio) before anti-CD93 antibodies, at a serial dilution, were allowed to associate for 300 seconds with captured protein. Then the sensors were dissociated in 1× kinetics buffer for 600 seconds. […] (FIG. 41).

[4] = biological target: T1, Human CD93 on cells (human CD93 …); test: flow cytometry titration, CHO-hCD93 cells; antibody stored 4 weeks at 40 C
Method: as §1, with “Human CD93 expressing CHO cells” for “HUVEC cells”, “minutes in” for “minutes at”, “minutes at” for “minutes in”

[5] = biological target: T1, Human CD93 on cells (human CD93 …); test: flow cytometry titration, HUVEC cells; antibody stored 4 weeks at 40 C; unit printed as nMM
Method: as §1

[6] = biological target: T2, Human CD93 recombinant protein (Sino …); test: ELISA, hCD93-His coated, OD450; unit printed as pmM
Method: His-tagged human CD93 was coated onto a 96 well plate at 1 μg/mL in 1×PBS overnight at 4° C. The plate was washed with ELISA wash buffer (Boston BioProduct, Inc.) and the wells were blocked with ELISA blocking buffer for 1 hour at 37° C. Purified antibodies were serially diluted in ELISA blocking buffer (Boston BioProduct, Inc.) and incubated on the receptor for 1 hour at 37° C. The plate was washed with ELISA wash Buffer. […] The plate was washed with ELISA wash buffer. HRP substrate was added for indirect detection of the antibodies binding to CD93.

Row | Binder | EC50 [1] [pM] | IC50 [2] [pM] | Kd [3] [pM] | koff [3] [s⁻¹] | kon [3] [M⁻¹ s⁻¹] | EC50 [4] [pM] | EC50 [5] [pM] | EC50 [6] [pM]
1 | B1 | 1120 | 153 | 472 | 0.000321 | 681000 | 195 | 1120 | 
2 | B2 |  |  |  |  |  |  |  | 112
